Changes are numbered by the printed parent chain. Values joined by “and” are separate entries in the source; they are usually repeats but may differ in a detail not shown here. Equal values may be shown once.
B1: p66CH2CB WT (N-terminal domains CH2 and CB of p66Shc, residues 1-150) (domain or fragment, UniProt P29353-1 1-150, looked up)
chain: MDLLPPKPKYNPLRNESLSSLEEGASGSTPPEELPSPSASSLGPILPPLPGDDSPTTLCSFFPRMSNLRLANPAGGRPGSKGEPGRAADDGEGIVGAAMPDSGPLPLLQDMNKLSGGGGRRTRVEGGQLGGEEWTRHGSFVNKPTRGWLH
notes: p66Shc (largest polypeptide of the shcA locus), residues 1-150 (CH2 and CB domains); Exists as a reduced dimer and an oxidised, disulfide-bridged tetramer; used as a mixture or as isolated states; also called p66Shc N-terminal domain; source: E. coli BL21(DE3)Rosetta2, purified (Talon resin, size exclusion on superose 12)
B2: p66CH2CB-Ser36Asp (domain or fragment, UniProt P29353 1-150, looked up)
chain: B1 chain with S36D
notes: p66Shc, residues 1-150 (CH2 and CB domains), Ser36Asp phosphomimetic; Dimer and tetramer forms were both used; also called Ser36Asp mutant; p66CH2CB-Ser36Asp mutant simulating Ser36 phosphorylation; source: E. coli BL21(DE3)Rosetta2, purified (Talon resin, size exclusion on superose 12)
B3: Peroxiredoxin 1 (Prx1) WT, recombinant (enzyme, mouse, UniProt P35700 1-199, looked up)
chain: MSSGNAKIGYPAPNFKATAVMPDGQFKDISLSEYKGKYVVFFFYPLDFTFVCPTEIIAFSDRADEFKKLNCQVIGASVDSHFCHLAWINTPKKQGGLGPMNIPLISDPKRTIAQDYGVLKADEGISFRGLFIIDDKGILRQITINDLPVGRSVDEIIRLVQAFQFTDKHGEVCPAGWKPGSDTIKPDVNKSKEYFSKQK
notes: Peroxiredoxin 1, gene PCR-amplified from mouse colon cDNA, cloned into pET151/D-Topo; Mainly a decamer (five dimers) on the BN-gel; also called decameric Prx1; source: E. coli BL21(DE3)Rosetta2, purified (Talon resin, size exclusion on superose 12); copies: 10
B4: Prx1-Cys83Ser (enzyme, mouse, UniProt P35700 1-199, looked up)
chain: B3 chain with C83S
notes: Peroxiredoxin 1 from mouse colon cDNA in pET151/D-Topo, Cys83Ser; Constitutively dimeric; also called Cys83Ser regulatory mutant; dimeric Prx1-Cys83Ser mutant; source: E. coli BL21(DE3)Rosetta2, purified (Talon resin, size exclusion on superose 12)
B5: Prx1-Cys52Ser (enzyme, mouse, UniProt P35700 1-199, looked up)
chain: B3 chain with C52S
notes: Peroxiredoxin 1 from mouse colon cDNA in pET151/D-Topo, Cys52Ser (peroxidasic cysteine); also called Prx1-Cys52Ser active site mutant; source: E. coli BL21(DE3)Rosetta2, purified (Talon resin, size exclusion on superose 12); copies: 10

Key:
[1] = biological target: the molecule itself; experiment: native gel or EMSA; BN-PAGE of purified recombinant proteins incubated for 1 hour at room temperature (20 μg p66CH2CB with 40 μg Prx1 WT or 20 μg Prx1-Cys83Ser); bands cut out and separated in a second, denaturing SDS-PAGE dimension
[2] = biological target: the molecule itself; experiment: SEC; oligomeric states separated on a superose 12 column in 20 mM Tris pH 7.8 + 150 mM NaCl
[3] = biological target: B1; experiment: native gel or EMSA; BN-PAGE of purified recombinant proteins incubated for 1 hour at room temperature (20 μg p66CH2CB with 40 μg Prx1 WT or 20 μg Prx1-Cys83Ser); bands cut out and separated in a second, denaturing SDS-PAGE dimension; conditions: both partners purified
[4] = biological target: the molecule itself; experiment: native gel or EMSA; BN-PAGE; 15 μg p66CH2CB with 30 μg decameric Prx1-Cys52Ser and 5/10/20 μg Trx1 in the presence of 3 mM EDTA

Row | Binder | stoichiometry N [1] | stoichiometry N [2] | further results
1 | B1 | 4 | 2 | –
2 | B2 | – | 2 and 4 | –
3 | B3 | – | – | stoichiometry N [3]: 1
4 | B4 | 2 | – | –
5 | B5 | – | – | stoichiometry N [4]: 10

From publication PMC2806001, “Identification of Peroxiredoxin 1 as a novel interaction partner for the lifespan regulator protein p66Shc” (Aging, 2009)
